{
  "source": "paper PMC5390017",
  "binders": {"B1": {"name": "CBTAU-7.1 (human IgG1) (antibody, V domains shown)", "VH": "QVQLVESGGGLVQPGGSLRLSCAASGFTFSSYWMHWVRQAPGKGLVWVSRINSDGSDTNYADSVKGRFTFSRDNAKNTLYLQMTSLRAEDTAIYYCTRGRSYGFFDYWGQGALVTVSS", "VL": "DIVMTQSPDTLSLSPGERATLSCRASQIISSNYLAWYQQQPGQAPRLLIYGASSRATGIPDRFSGSGSATDFTLTISRLEPEDFAVYYCQQYGTSPRTFGQGTKLEIK"}, "B2": {"name": "CBTAU-22.1 (human IgG1) (antibody, V domains shown)", "VH": "QVQLVQSGAEVKKPGAPVKVSCETSGYRFSDYNVHWVRQAPGQGPEWIGRISPNSGGTKYAQKFQGRVTMTRDMSMNTAYMELSGLRSDDTAVYYCVRGHCDGTTCSRAYWGQGTLVTVSS", "VL": "DVVMTQSPLSLPVTPGEPASISCRSSQSLLHRSGHKYLHWYLQRPGQSPQVLIYLGSNRASGVPDRFSGSGSGTDFTLKISRVEAEDVGLYYCMQTLQTPWTFGQGTKVEIK"}},
  "key": {"[1]": {"molecular_target": "tau phosphopeptide 194-212 phosphorylated at S202 and T205 (human) (UniProt P10636)", "test": "ITC; MicroCal Auto iTC200, in solution; peptide ~40 µM, mAb 200 µM, 20 steps of 2 µl; fitted to a single set of sites, mAb:tau peptide = 1:2"}, "[2]": {"molecular_target": "tau phosphopeptide of the C-terminal domain phosphorylated at S422 (cognate peptide of CBTAU-22.1) (human)", "sequence (P10636 721-746)": "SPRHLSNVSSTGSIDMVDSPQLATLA", "test": "ITC; MicroCal Auto iTC200, in solution; peptide ~40 µM, mAb 200 µM, 20 steps of 2 µl; fitted to a single set of sites, mAb:tau peptide = 1:2"}},
  "data": [
    {"binder": "B1", "values": [
      {"measurement": "Kd", "setting": "[1]", "value": 5.8, "unit": "µM"}
    ]},
    {"binder": "B2", "values": [
      {"measurement": "Kd", "setting": "[2]", "value": 32.7, "unit": "µM"}
    ]}
  ]
}
